Data as given in patent publication US20050101770A1 (SCHERING, published 2005).
Changes are numbered by the printed parent chain.

T1: recombinant hIL-10Ra (hIL-10Ra): FLAG-tagged protein (human, UniProt Q13651 22-235)
T1 construct: The order of the receptor part and the FLAG tag is unknown; also called huIL-10Ra; not shown: FLAG tag
T1 sequence (looked up): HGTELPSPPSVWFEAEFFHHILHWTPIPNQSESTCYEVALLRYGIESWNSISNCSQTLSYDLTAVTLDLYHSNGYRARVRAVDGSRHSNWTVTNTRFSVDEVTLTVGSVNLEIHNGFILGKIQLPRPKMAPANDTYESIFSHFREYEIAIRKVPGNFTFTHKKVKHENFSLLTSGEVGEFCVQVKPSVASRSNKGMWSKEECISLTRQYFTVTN

B1: Monoclonal humanized antibody SCH 708980 to recombinant human IL-10 (humanized 12G8) (antibody, human IgG1, kappa, V domains shown)
VH: QVQLVESGGGVVQPGRSLRLSCAASGFTFSDYHMAWVRQAPGKGLEWVASITLDATYTYYRDSVRGRFTISRDNSKNTLYLQMNSLRAEDTAVYYCARHRGFSVWLDYWGQGTLVTVSS
VL: DIQMTQSPSSLSASVGDRVTITCKTSQNIFENLAWYQQKPGKAPKLLIYNASPLQAGVPSRFSGSGSGTDFTLTISSLQPEDFATYYCHQYYSGYTFGPGTKLELKR
notes: also called h12G8; hu12G8
B2: recombinant cyno IL-10 (cyno IL-10) (ligand, UniProt P79338 19-178, looked up)
chain: SPGQGTQSENSCTRFPGNLPHMLRDLRDAFSRVKTFFQMKDQLDNILLKESLLEDFKGYLGCQALSEMIQFYLEEVMPQAENHDPDIKEHVNSLGENLKTLRLRLRRCHRFLPCENKSKAVEQVKNAFSKLQEKGVYKAMSEFDIFINYIEAYMTMKIRN
B3: recombinant human IL-10 dimer (hIL-10-dimer) (ligand, UniProt P22301 19-178, looked up)
chain: B2 chain with R14H, H21N, I46L, H83Q, E89A, S129N, V136I
notes: also called hu IL-10
B4: recombinant mouse IL-10 (mIL-10) (ligand, UniProt P18893 19-178, looked up)
chain: SRGQYSREDNNCTHFPVGQSHMLLELRTAFSQVKTFFQTKDQLDNILLTDSLMQDFKGYLGCQALSEMIQFYLVEVMPQAEKHGPEIKEHLNSLGEKLKTLRMRLRRCHRFLPCENKSKAVEQVKSDFNKLQDQGVYKAMNEFDIFINCIEAYMMIKMKS
B5: rat anti hIL-10 mAb 12G8 (r12G8): JES3.12G8 (antibody, V domains shown)
VH: EVQLVESGGGLVRPGGSLRLSCTASGFTFSDYHMAWVRQSPDKGLEWVASITLDATYTYYRDSVRGRFTISRNNAKTTLYLQMDSLRSEDTATFYCTRHRGFSVWLDYWGQGVMVTVSS
VL: DIQMTQSPSLLSASVGDRVTLNCKTSQNIFENLAWYQQKLREPPKLLIFNASPLQAGIPSRFSGSGSGTDFTLTITSLQPEDVATYFCHQYYSGYTFGPGTKLELKR
notes: Rat monoclonal antibody; also called Rat 12G8; JES.12G8

Key:
[1] = molecular target: B4; experiment: KinExA, solution equilibrium, mIL-10 run #1
Procedure: (§1) The equilibrium dissociation constant (Kd) for humanized antibody SCH 708980 was determined using KinExA 3000 (Sapidyne Instruments Inc.). KinExA uses the principle of the Kinetic Exclusion Assay method based on measuring the concentration of uncomplexed antibody in a mixture of antibody, antigen and antibody-antigen complex. The concentration of free antibody was measured by exposing the mixture to a solid-phase immobilized antigen for a very brief period of time. In practice, this was accomplished by flowing the solution phase antigen-antibody mixture past antigen coated particles trapped in a flow cell. Data generated by the instrument were analyzed using custom software. Equilibrium constants were calculated using a mathematical theory based on the following assumptions: [0139] 1. The binding follows the reversible binding equation for equilibrium: Kₒₙ[Ab][Ag]=Koff[AbAg] [0140] 2. Antibody and antigen bind 1:1, and total antibody equals antigen-antibody complex plus free antibody [0141] 3. Instrument signal is linearly related to free antibody concentration
(§2) For mIL-10 runs the following conditions were used: [0154] […] Sample flow rate: 0.25 ml/min [0156] Label volume: 0.5 ml [0157] Label flow rate: […] [0158] mAb conc.: 1 nM [0159] Highest Ag (mIL-10) conc.: 50 nM [0160] Lowest Ag (mIL-10) conc.: 48.8 pM […]

[2] = molecular target: B4; experiment: KinExA, solution equilibrium, mIL-10 run #3
Procedure: as §1, §2

[3] = molecular target: B2; experiment: KinExA, solution equilibrium, cyno IL-10 run #3
Procedure: as §1
(§3) For cyno IL-10 runs the following conditions were used: [0163] Sample volume: 2 ml [0164] Sample flow rate: 0.25 ml/min [0165] Label volume: 1 ml [0166] Label flow rate: 0.25 ml/min [0167] mAb conc.: 0.1 nM [0168] Highest Ag (mIL-10) conc.: 5.0 nM [0169] Lowest Ag (mIL-10) conc.: 4.88 pM […]

[4] = molecular target: B4; experiment: Biacore, mean ± S.D. (n); format not described
[5] = molecular target: B3; experiment: Biacore, mean ± S.D. (n); format not described
[6] = molecular target: B2; experiment: Biacore, mean ± S.D. (n); format not described
[7] = molecular target: B4; experiment: KinExA, mean ± S.D. (n) of the runs of Table 14
[8] = molecular target: B3; experiment: KinExA, mean ± S.D. (n) of the runs of Table 14
[9] = molecular target: B2; experiment: KinExA, mean ± S.D. (n) of the runs of Table 14
[10] = molecular target: B2; experiment: KinExA, solution equilibrium, cyno IL-10 run #1
Procedure: as §1, §3

[11] = molecular target: B3; experiment: KinExA, solution equilibrium, hIL-10 run #1
Procedure: as §1
(§4) Experimental conditions: All runs were done in duplicate. For hIL-10 runs the following conditions were used: [0145] Sample volume: 1.5 ml [0146] Sample flow rate: 0.25 ml/min [0147] Label volume: 0.5 ml [0148] Label flow rate: 0.25 ml/min [0149] mAb conc.: 0.1 nM [0150] Highest Ag (hlL-10) conc.: 4.0 nM [0151] […]

[12] = molecular target: B4; experiment: KinExA, solution equilibrium, mIL-10 run #2
Procedure: as §1, §2

[13] = molecular target: B3; experiment: KinExA, solution equilibrium, hIL-10 run #3
Procedure: as §1, §4

[14] = molecular target: B2; experiment: KinExA, solution equilibrium, cyno IL-10 run #2
Procedure: as §1, §3

[15] = molecular target: B3; experiment: KinExA, solution equilibrium, hIL-10 run #2
Procedure: as §1, §4

[16] = molecular target: T1, recombinant hIL-10Ra (hIL-10Ra): …; experiment: competitive ECLA (IGEN): unlabeled IL-10 varied, competitor hIL-10-biotin
From the text: (§5) Materials used. 96 well Polypropylene plates (Costar, Cat. No. 3365, Fisher Sci. Cat. No. 07200697); assay buffer of 0.1% BSA, 0.05% tween 20, PBS pH 7.5; paramagnetic beads (Streptavidin-Dynabeads, Igen, Inc., Cat. No. 110029); recombinant human IL-10 dimer (hIL-10-dimer); recombinant human IL-10-monomer (hlL-10-mono); recombinant mouse IL-10 (mIL-10); recombinant cyno IL-10 (cyno IL-10); and recombinant hIL-10Ra (hL-10Ra): FLAG-tagged protein. Ori-Tag labeled anti-FLAG M2 monoclonal antibodies were prepared using Ori-Tag-NHS ester (Igen, Inc. Cat. No. 110034) according to manufacturer's protocol (OriTag label: IgG challenge ratio 8:1). Anti-Flag M2 monoclonal antibodies were purchased from Sigma (Cat. No. F3165). Ori-Tag labeled anti hIgG 1A2 monoclonal antibodies were prepared as above using rat anti hIgG monoclonal antibodies. Ori-Tag labeled anti rat IgG antibodies were prepared as above from polyclonal Goat anti rat IgG (H+L) antibodies (Jackson Immunoresearch Laboratories, Inc. PA, Cat. No. 112-005-143). Biotinylated recombinant human IL-10 (hIL-10-biotin) was prepared using TFP-PEO-biotin (Pierce, Cat. No. 21219) according to manufacturer's recommendations (Pierce bulletin 0874). The rat anti hIL-10 mAb 12G8 (r12G8): JES3.12G8 and humanized anti hIL-10 mAb 12G8 (hl2G8-1) were prepared as described herein.
(§6) Protocol. ⅓ serial dilutions in 50 microliters of the assay buffer were made in 96-well microtiter plate for all unlabeled IL-10 preparations (mIL-10, cyno IL-10, hIL-10 dimer, hIL-10 mono) starting with 3 μg/ml in the first well. All samples were run in duplicates. 50 μl of hIL-10-biotin at 25 ng/ml was added to each well, followed by the addition of either hIL-10Ra (50 μl at 100 ng/ml) or […] (50 μl at 10 ng/ml). 50 microliters of Ori-Tag conjugated secondary antibodies was added to each well at 500 ng/ml conc. For hIL-10Ra, r12G8 and h12G8 the following Ori-Tag conjugated were used accordingly: anti-FLAG M2-OriTag, anti-rat IgG-OriTag and anti hIgG 1A2-OriTag. Finally to each well 50 μl of Streptavidin-Dynabeads at 0.1 mg/ml was added. After a one hour incubation at room temperature the plate was processed by the M-series M8/384 analyzer. Percent inhibition of the signal by unlabeled IL-10 preparations was calculated relative to the control samples. To plot the data and calculate IC₅₀ the GraphPad Prism Software was used.

[17] = molecular target: B5; experiment: as above
From the text: as §5, §6

[18] = molecular target: B1; experiment: as above
From the text: as §5, §6

[19] = molecular target: B5; experiment: IGEN competitive ECLA, mean ± S.D. (n); summary of Table 15
From the text: as §5, §6

[20] = molecular target: B1; experiment: as above
From the text: as §5, §6

[21] = molecular target: T1, recombinant hIL-10Ra (hIL-10Ra): …; experiment: competitive ECLA (IGEN): unlabeled IL-10 against hIL-10-biotin for FLAG-tagged hIL-10Ra
From the text: as §5, with “Biotinylated recombinant human IL-10 (hIL-10-biotin) was prepared using TFP-PEO-biotin (Pierce, Cat. No. 21219) according to manufacturer's recommendations (Pierce bulletin 0874). The rat anti hIL-10 mAb 12G8 (r12G8): JES3.12G8 and humanized anti hIL-10 mAb 12G8 (hl2G8-1) were prepared as described herein.” left out
Protocol. ⅓ serial dilutions in 50 microliters of the assay buffer were made in 96-well microtiter plate for all unlabeled IL-10 preparations (mIL-10, cyno IL-10, hIL-10 dimer, hIL-10 mono) starting with 3 μg/ml in the first well. […] Percent inhibition of the signal by unlabeled IL-10 preparations was calculated relative to the control samples. […]

[22] = molecular target: B3; experiment: KinExA, mean (n)

Row | Kd [4] [nM] | Kd [5] [nM] | Kd [6] [nM] | IC50 [16] [nM] | IC50 [17] [nM] | IC50 [18] [nM] | IC50 [19] [nM] | IC50 [20] [nM] | Binder | other results
1 | 8.6 | 0.511 | 0.659 |  |  |  |  |  | B1 | Kd [1]: 0.282 nM; Kd [2]: 0.308 nM; Kd [3]: 0.0925 nM; Kd [7]: 0.286 nM; Kd [8]: 0.025 nM; Kd [9]: 0.076 nM; Kd [10]: 0.0397 nM; Kd [11]: 0.0274 nM; Kd [12]: 0.267 nM; Kd [13]: 0.0155 nM; Kd [14]: 0.0966 nM; Kd [15]: 0.0323 nM
2 |  |  |  | 17.6 | 6.6 | 4.9 | 6.6 | 4.9 | B2 | 
3 |  |  |  | 2.9 | 4.7 | 4 | 4.7 | 4 | B3 | 
4 |  |  |  |  | 37.9 | 53 | 38 | 53 | B4 | binding result [21]: no binding (tested: unlabeled IL-10 titrated from 3 µg/ml)
5 | 7.4 | 0.277 | 0.33 |  |  |  |  |  | B5 | Kd [22]: 0.023 nM
